Source: paper PMC4205155

Target: T1, CREB B-ZIP DNA binding domain (UniProt P16220 269-327)
T1 sequence: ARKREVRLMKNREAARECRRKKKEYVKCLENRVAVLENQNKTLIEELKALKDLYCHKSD
Assay: EMSA

B1: CRE 28-mer unmethylated (U) (dsDNA)
DNA 1: GTCAGTCAGATGACGTCATATCGGTCAG
DNA 2: CTGACCGATATGACGTCATCTGACTGAC
binding result: binds
